Assay results: patent publication US20070082400A1

Biological target: human CD40L protein translated from transfected CD40L mRNA (pCR2.1 CD40L WT, >100 nucleotide polyA tail) (human) (UniProt P29965)
Assay: cell-based or functional assay

Chain of UniProt P29965 (P29965 whole entry): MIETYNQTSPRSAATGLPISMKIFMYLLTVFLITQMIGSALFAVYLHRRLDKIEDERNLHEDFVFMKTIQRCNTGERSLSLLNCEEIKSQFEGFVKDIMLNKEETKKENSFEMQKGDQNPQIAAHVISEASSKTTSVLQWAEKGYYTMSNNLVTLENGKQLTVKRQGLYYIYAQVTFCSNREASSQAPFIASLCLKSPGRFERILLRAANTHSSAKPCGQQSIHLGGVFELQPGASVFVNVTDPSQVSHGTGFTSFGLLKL

IL-12p70 (pg/ml), 'Cocktail' matured and reactivated DCs co-cultured with CD40L mRNA-transfected HeLa cells plus IFN-gamma plus 24-31: 2.5 pg/mL | IL-12p70 release by CD40L mRNA-transfected DCs cultured with IFN-gamma and 10 or 50 ug/ml blocking anti-CD40L antibody: 50%
Substance: blocking CD40L monoclonal antibody 24-31 (eBioscience)
